Among the data in patent US20190225661A1 are HGF recovered from beads after pull-down with IgG values, retold here.

The assay has as its target non-specific polyclonal IgG. The experiment in a line: non-specific polyclonal IgG (2 ug/ml) added as bait, protein A Sepharose pull-down, deoxycholate release, HGF ELISA. (In an ELISA, binding on a coated surface is turned into a signal by an enzyme label.)

For “Hepatocyte Growth Factor (HGF) in human epicardial-derived cell-conditioned medium (EPI CdM) (ligand)”, the HGF recovered from beads after pull-down with IgG was determined as 2.8 ng/mL.
